Data on one substance can be found in patent US20210221891A1.

In general, EC50 (read off the curve) refers to the concentration needed to bring the measured effect to its halfway point. Low values mean an effect from little substance, high ones a need for much substance.

This experiment concerns the target human PD-L1 expressed on CHO-K1 cells (human) (UniProt Q9NZQ7). The experiment can be described thus: FACS binding to CHO-K1 cells stably expressing human PD-L1, FITC anti-human IgG secondary, Geo.Mean fluorescence vs log(nM) antibody.

Sequence of human PD-L1 expressed on CHO-K1 cells (human) (Q9NZQ7 19-290): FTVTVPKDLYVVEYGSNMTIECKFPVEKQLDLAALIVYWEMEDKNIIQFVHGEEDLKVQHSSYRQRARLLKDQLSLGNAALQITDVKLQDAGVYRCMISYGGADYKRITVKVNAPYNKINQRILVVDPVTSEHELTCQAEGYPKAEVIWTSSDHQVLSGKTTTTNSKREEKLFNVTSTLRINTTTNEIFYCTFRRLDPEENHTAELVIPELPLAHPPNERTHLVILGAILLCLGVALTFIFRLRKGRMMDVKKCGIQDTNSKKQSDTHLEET

For Tecentriq® (antibody), the EC50 (read off the curve) is 20 nM.
